This note sets out measurements from article PMC3824165.

The target of test [1] is host cellular β-tubulin (Vero cells) (African green monkey (endogenous in Vero)). Nature of the test: co-IP.
The target in test [2] is host cellular β-tubulin (293T cells) (human (endogenous in 293T)) (UniProt P07437). Nature of the test: co-IP.

In the case of “3xFLAG-tagged full-length TgRON4 lacking its putative signal sequence (TgRON4-Full) (from UniProt B6KJ32 27-984) (natural protein)”, the ratio of precipitated TgRON4 to TgRON4 in total membrane fraction in test [1] came out at 1%. With “3xFLAG-tagged C-terminal half of TgRON4 (TgRON4B) (domain or fragment)”, the values for the ratio of precipitated TgRON4 to TgRON4 in total membrane fraction in test [1] and in test [2] were 0.56% and 0.82%, respectively.
